Measurements taken from US20220362330A1, “Compositions and Methods for Increasing Epithelial Barrier Function” (The Board of Trustees of the Leland Stanford Junior …, priority 2019, published 2022).
Entries after “also recorded” stand apart in the source; their conditions may differ. Square brackets hold non-standard residues; d marks the D form. Ends that are not written are not given here. Ahx = NCCCCCC(=O)O

Experiments:
[1] = test system: vaginal epithelium; assay: Vaginal epithelial integrity and thickness in OVX mice, histology; format: in vivo; details: ivag for 9 consecutive days, peptide dimer 10^−4 μM, Fc-EFNA3 1 μM
Protocol: Mice in estrus and OVX mice were used in these experiments. OVX mice received PBS alone, EFNA3-derived peptide dimer (10^−4 μM) or recombinant mouse Fc-EFNA3 (1 μM) via atraumatic intravaginal administration for 9 consecutive days. All mice were euthanized, and vaginal tissue processed for histological evaluation and measurement of vaginal epithelial thickness.
8-10 weeks female C57BL/6J mice were anesthetized. Dorsal skin was shaved and cleaned with 70% ethanol followed by povidone-iodine. Following appropriate sterile technique, a single dorsal skin incision was performed, followed by dissection until ovarian fat pads were identified and ovaries removed. Peritoneal and abdominal walls were sutured, and mice recovered from anesthesia. After confirmation of suppression of estrous cycle, mice were used in experiments.

[2] = test system: desmoglein-1a (DSG1a); assay: qRT-PCR of Dsg1a gene expression in vaginal tissue; format: in vivo, mice
Protocol: (§1) To define progestin-mediated changes in mucosal permeability, vaginal tissue from mice in estrus, diestrus, or after DMPA or LNG treatment was used to measure expression of the desmosomal cadherins desmoglein-1a (DSG1a) and desmocollin-1 (DSC1).
(§2) Human ectocervical and murine vaginal tissues were immediately immersed in 1 mL of RNAlater® (Qiagen), stored for 24 h at 4° C., and stored long-term at −80° C. RNA isolated using the RNeasy Lipid Tissue Kit (Qiagen) using manufacturer's instructions was re-suspended in nuclease-free water and quantified using a NanoDrop spectrophotometer (Thermo Scientific). The following mouse primers were utilized: desmocollin 1 (Mm00496525_ml), desmoglein-1α (Mm00809994_s1), ephrinA3 (Mm01212723_g1) and pyruvate carboxylase (Mm00500992_ml) as housekeeping reference gene (all from Thermo Scientific). These human primers were used: desmoglein-1 (Hs00355084_m1) and glucose-6-phosphate isomerase (Hs00976711_m1) as a housekeeping reference gene. To define relative gene expression, 100 ng of RNA was mixed with TaqMan® RNA-to-Ct™ 1-Step Kit and adequate primer (final volume of 10 μL/well) using manufacturer's instructions (Life Technologies). qRT-PCR was performed using a Quantstudio3 Thermal Cycler, and data analyzed via Quanstudio Software (Applied Biosystems).

[3] = test system: VK2/E6E7 vaginal cells; assay: DSG1 gene expression in human vaginal epithelial cell line; format: cell-based; details: 24 h, qRT-PCR
Protocol: VK2/E6E7 vaginal cells at 70-90% confluency were treated with indicated concentrations of EFNA3-derived peptide dimer for 24 h. Cells were harvested for RNA isolation and determination of relative DSG1 gene expression via qRT-PCR and ΔΔCt analysis.
VK2/E6E7 (ATCC® CRL-2616™) vaginal epithelial cell line was grown using ReproLife™ Reproductive Medium Complete Kit for up to 4 passages. For experiments, 10^5 cells were plated in 12-well plates. Cells reached 70-90% confluency after 24 hand were stimulated with EFNA3-like peptide dimer or vehicle. Cells were incubated for 24 h with indicated treatments. RNA was extracted and 500 ng of RNA used to generate cDNA using the SuperScript™ IV VILO™ Master Mix. Relative DSG1 (Hs00355084_m1) gene expression was calculated by normalization with the housekeeping gene glucose-6-phosphate isomerase (Hs00976711_m1) via qRT-PCR.

[4] = test system: desmocollin-1 (DSC1); assay: qRT-PCR of Dsc1 gene expression in vaginal tissue; format: in vivo, mice; details: DMPA-treated mice
Protocol: as §1, §2

[5] = test system: HSV-2; assay: Lethal genital HSV-2 infection; format: in vivo; details: DMPA-treated mice; 10^4 pfu of HSV-2
Protocol: Mice were sedated with xylazine (Lloyd Laboratories, Shenandoah Iowa) and ketamine hydrochloride (JHP Pharmaceuticals, LLC Rochester Mich.), and intravaginally infected with 10^4 plaque-forming units (pfu) of WT HSV-2 333 in 10 μL of RPMI. Mouse mortality was evaluated daily for 15 days.

[6] = test system: anti-OVA IgE; assay: Mouse epicutaneous sensitization model of atopic dermatitis, serum anti-OVA IgE ELISA; format: in vivo, mice; details: 3 cycles, OVA + Fc-EFNA3 vs OVA alone
Protocol: Mice underwent epicutaneous sensitization with OVA alone or in combination with recombinant mouse Fc-EFNA3. After 3 sensitization cycles, animals were euthanized to obtain blood for serum isolation. Then, levels of serum anti-OVA IgE was determined via ELISA.
6-10 weeks old Balb/cJ mice were anesthetized. Dorsal skin was shaved, and skin tape-stripped 6 times. PBS alone, 100 μg of ovalbumin (OVA) in PBS or 100 μg OVA+recombinant mouse Fc-EFNA3 in 100 μl of PBS were added to a 1×1 cm sterile gauze that was applied directly to tape-stripped area of skin and covered with a transparent bio-occlusive dressing. This patch was left in place for a 1-week period and removed. This procedure was repeated twice with 2-week intervals between applications. After completing the 3rd skin sensitization, mice were euthanized and serum samples obtained. Serum levels of anti-OVA IgE were was determined using an in-house ELISA.

[7] = test system: DSG1 protein; assay: DSG1 protein levels in vaginal tissue, immunofluorescent staining and confocal microscopy; format: in vivo, mice
Protocol: Excised mouse vaginas were formaldehyde fixed and paraffin embedded (FFPE), and 10 μm sections mounted on glass slides and de-paraffinized by sequential immersion in 100% xylene, 100% ethanol, 96% ethanol, and sterile DEPC-treated water. Antigen retrieval was performed using 10 mM sodium citrate buffer (pH 6.0) containing 0.05% Tween 20 (both Sigma-Aldrich) (20 minutes at 95° C.). After 3 PBS washes, sections were incubated overnight in 10% normal goat serum (Abcam, Cambridge Mass.) at 4° C., then incubated for 1 h at ambient temperate with rabbit anti-desmoglein-1 (clone EPR6766(B)) antibody, washed and incubated for 1 h with AlexaFluor® 488-labeled goat anti-rabbit IgG (antibodies from Abcam) (all antibodies were diluted in PBS with 1% BSA and 0.05% Tween 20). Sections were stained with DAPI and evaluated for levels of DSG1 protein (defined by calculating pixel numbers per 100 μm^2) using confocal microscopy and ImageJ software.

[8] = test system: genital mucosal barrier; assay: Murine tissue permeability assay, low molecular weight fluorescent molecules given intravaginally; format: in vivo, mice
Protocol: Effects of progestins on genital mucosal barrier permeability were evaluated by intravaginally (ivag) administering 457 Da and 70 KDa-sized fluorescent molecules to mice in estrus or diestrus-stage or after DMPA or LNG treatment. Mice were grouped as follows: untreated in estrus, untreated in diestrus, DMPA treated, or LNG treated. The mice were intravaginally administered a PBS solution containing Lucifer yellow (457 Da) and Texas-Red-conjugated dextran (70 KDa). Animals were euthanized 45 minutes later to assess vaginal tissue penetration of these molecules by confocal microscopy. […] Mucosal permeability was increased moderately by diestrus, but dramatically by DMPA or LNG. Conversely, permeability increases were negligible in estrus-stage mice and mice treated with MePRDL or DMPA and RU486. This indicates exogenous progestins increase genital mucosal permeability.
To evaluate mucosal permeability to low molecular weight molecules, indicated groups of mice were sedated, and 10 μL of a PBS solution containing 62.5 μg of dextran Texas-Red® (DR) (MW=70,000 Da) and 50 μg of Lucifer yellow CH, lithium salt (LY) (MW=457.2 Da) (both from Life Technologies) administered intravaginally. 45 minutes later, mice were euthanized, and excised vaginal tissue fixed in formaldehyde. Fixed tissue was embedded in agarose, and 200-300 μm specimens were sectioned with a vibratome. After counterstaining with 4,6-diamidino-2-phenylindole (DAPI), confocal microscopy images were acquired by sequential scanning to prevent fluorescence crossover.

## RYSAFSLGYEFH-Ahx-K-HFEYGLSFASYR (RYSAFSLGYEFH[Ahx]KHFEYGLSFASYR; also: Ahx-Lys linked dimer) [EFNA3-derived peptide dimer, Ahx is aminohexanoic acid]
[1]
  vaginal epithelial integrity (epithelial thickness): improves vaginal epithelial integrity
[2]; DMPA-treated mice, Fc-EFNA3 at 1 μM
  potency on Dsg1a expression compared to recombinant mouse Fc-EFNA3: greater potency
[2]; DMPA-treated mice, topical/ivag in PBS, 24 hours
  Dsg1a mouse vaginal expression: promotes Dsg1a mouse vaginal expression
[2]; topical administration
  expression of cell-cell adhesion molecules in genital mucosal epithelium: significantly increases
[3]
  DSG1 gene expression: increase DSG1 expression; also recorded: promotes DSG1 expression

B1: Fc-EFNA3: Recombinant Mouse Ephrin-A3 Fc Chimera Protein, SEQ ID NO: 13 (protein)
chain: QGPGGALGNRHAVYWNSSNQHLRREGYTVQVNVNDYLDIYCPHYNSSGPGGGAEQYVLYMVNLSGYRTCNASQGSKRWECNRQHASHSPIKFSEKFQRYSAFSLGYEFHAGQEYYYISTPTHNLHWKCLRMKVFVCCASTSHSGEKPVPTLPQFTMGPNVKINVLEDFEGENPQVPKLEKSISGIEGRMDPAKTTAPSVYPLAPVCGDTTGSSVTLGCLVKGYFPEPVTLTWNSGSLSSGVHTFPAVLQSDLYTLSSSVTVTSSTWPSQSITCNVAHPASSTKVDKKIEPRGPTIKPCPPCKCPAPNLLGGPSVFIFPPKIKDVLMISLSPIVTCVVVDVSEDDPDVQISWFVNNVEVHTAQTQTHREDYNSTLRVVSALPIQHQDWMSGKEFKCKVNNKDLPAPIERTISKPKGSVRAPQVYVLPPPEEEMTKKQVTLTCMVTDFMPEDIYVEWTNNGKTELNYKNTEPVLDSDGSYFMYSKLRVEKKNWVERNSYSCSVVHEGLHNHHTTKSFSRTPGK
[4]; ivag 0.25, 0.5, 1 and 2.5 μg in 10 μL, six hours after treatment
  dose that optimized Dsc1 gene expression: 0.5 µg
[4]; ivag, select doses vs Fc-control, 6 h
  expression of Dsc1: increased expression
[5]
  survival after genital HSV-2 infection: improves the survival
[1]
  vaginal epithelial integrity (epithelial thickness): improves vaginal epithelial integrity
[6]
  serum allergen-specific (anti-OVA) IgE levels: reduces allergen sensitization
[6]; listed as recombinant mouse Fc-EFNA3
  serum allergen-specific (anti-OVA) IgE levels: decreased allergen-specific IgE levels
[7]; 1.5 ug in 30 uL of PBS vs 0.5 ug in 10 uL of PBS
  homogeneity of DSG1 protein expression: more homogeneous expression
[7]; DMPA-treated mice, 24 hours after treatment
  dose that optimized levels of DSG1 protein: 0.5 µg
[7]; DMPA-treated mice, 24 hours, doses above 1 μg
  DSG1 expression at higher doses: reduced at higher doses
[7]; DMPA-treated mice, 24 hours, up to the 1 μg dose
  DSG1 protein expression, dose dependence: dose-dependent increase
[2]; DMPA-treated mice, ivag 0.25, 0.5, 1 and 2.5 μg in 10 μL, six hours after treatment
  dose that optimized Dsg1a gene expression: 0.5 µg
[2]; DMPA-treated mice, ivag, select doses vs Fc-control, 6 h
  expression of Dsg1a: increased expression
[8]; DMPA-treated mice, one ivag dose of 1.5 ug/30 uL
  genital mucosal barrier function / permeability to LMW fluorescent molecules: decreased genital mucosal permeability
[8]; via increased expression of epithelial cell-cell adhesion molecules, especially DSG1
  genital mucosal barrier function (summary of the studies): enhanced genital mucosal barrier function
